{
  "source": "paper PMC12085581",
  "about": "“Auricular malformations are driven by copy number variations in a hierarchical enhancer cluster and a dominant enhancer recapitulates human pathogenesis”",
  "target": "T1, MEIS1 (human, UniProt O00470 1-390)",
  "T1 sequence": "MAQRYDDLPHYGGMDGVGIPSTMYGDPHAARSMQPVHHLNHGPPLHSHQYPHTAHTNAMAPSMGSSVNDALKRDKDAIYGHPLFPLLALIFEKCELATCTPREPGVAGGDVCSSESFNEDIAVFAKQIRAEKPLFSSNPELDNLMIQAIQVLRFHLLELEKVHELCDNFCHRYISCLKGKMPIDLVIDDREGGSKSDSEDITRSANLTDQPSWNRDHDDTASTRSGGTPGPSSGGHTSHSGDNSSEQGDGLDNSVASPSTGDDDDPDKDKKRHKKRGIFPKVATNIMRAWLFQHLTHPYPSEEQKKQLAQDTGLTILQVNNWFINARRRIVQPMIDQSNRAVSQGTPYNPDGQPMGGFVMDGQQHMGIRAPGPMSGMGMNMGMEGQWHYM",
  "assay": "EMSA; EMSA: LightShift Chemiluminescent EMSA kit per manufacturer (buffer not given); protein stock in 50 mM Tris, 200 mM NaCl, 10 mM 2-mercaptoethanol, 10% glycerol, pH 7.5. Pull-down: streptavidin beads, 1 h at 4 C, PBS washes",
  "settings": "protein: recombinant; tags: His6-MBP-TEV, tag removed by TEV protease; label: 5' biotin on both strands; blunt",
  "data": [
    {"binder": "probe1 (hEC1 MEIS1 site) (dsDNA) DNA 1: GGAAATGCGGCCCATCAATCATAAACTGATTACAAATTCGTCA DNA 2: TGACGAATTTGTAATCAGTTTATGATTGATGGGCCGCATTTCC", "values": [
      {"measurement": "binding result", "result": "binds"}
    ]}
  ]
}
